Data from patent US20240173352A1 (published 2024).
Values belong to the binder of their own block, whether it stands above or below them.

What was measured:
Assay in all cases: activation reporter or marker
[1] = target: T1, mH-Y (MiHA-Y) peptide on H-2Db (mouse)
T1 peptide: KCSRNRQYL

[2] = target: T2, HA-1(R), allelic variant of HA-1; Rho GTPase activating protein 45 (HMHA1) peptide on HLA-A*02:01 (human)
T2 peptide: VLRDDLLEA

[3] = target: T3, HA-1(H), minor histocompatibility antigen HA-1 variant H; Rho GTPase activating protein 45 (HMHA1) peptide on … (human)
T3 peptide: VLHDDLLEA

binding result [1]: recognises
B1: H-Y TCRalpha P2A TCRbeta Jb2.3L (TCR, V domains shown)
Valpha: AQSVDQPDAHVTLSEGASLELRCSYSYSAAPYLFWYVQYPGQSLQFLLKYITGDTVVKGTKGFEAEFRKSNSSFNLKKSPAHWSDSAKYFCALEGQDQGGSAKLIFGEGTKLTVSS
Vbeta: EAAVTQSPRNKVAVTGGKVTLSCNQTNNHNNMYWYRQDTGHGLRLIHYSYGAGSTEKGDIPDGYKASRPSQENFSLILELATPSQTSVYFCASGDNSAETLYFGPGTRLLVL

binding result [2]: no recognition
binding result [3]: recognises
B2: KP7 HA-1H TCR (TCR, V domains shown)
Valpha: KNEVEQSPQNLTAQEGEFITINCSYSVGISALHWLQQHPGGGIVSLFMLSSGKKKHGRLIATINIQEKHSSLHITASHPRDSAVYICAVRSVSGAGSYQLTFGKGTKLSVIP
Vbeta: DTGVSQNPRHKITKRGQNVTFRCDPISEHNRLYWYRQTLGQGPEFLTYFQNEAQLEKSRLLSDRFSAERPKGSFSTLEIQRTEQGDSAMYLCASSIDSFNEQFFGPGTRLTVL
